# Reference: article PMC2756588
# T1: Lsb4, P32793
# T1 sequence (P32793 402-468, looked up): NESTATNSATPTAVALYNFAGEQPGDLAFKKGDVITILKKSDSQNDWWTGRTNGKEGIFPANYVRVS
# T2: Boi2, P39969
# T2 sequence (P39969 32-116, looked up): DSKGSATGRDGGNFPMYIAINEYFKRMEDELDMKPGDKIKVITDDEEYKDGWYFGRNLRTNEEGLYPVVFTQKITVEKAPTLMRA
# T3: Pex13, P80667
# T3 sequence (P80667 295-386, looked up): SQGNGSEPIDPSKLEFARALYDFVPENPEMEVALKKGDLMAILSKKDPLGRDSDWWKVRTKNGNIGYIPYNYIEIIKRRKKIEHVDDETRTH
# T4: Lsb3, P43603
# T4 sequence (P43603 385-451, looked up): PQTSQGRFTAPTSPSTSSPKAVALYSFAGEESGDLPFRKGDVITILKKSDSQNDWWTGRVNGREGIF
# T5: Nbp2, Q12163
# T5 sequence (Q12163 103-180, looked up): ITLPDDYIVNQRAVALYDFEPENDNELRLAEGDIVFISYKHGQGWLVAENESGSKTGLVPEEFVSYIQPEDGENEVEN
# T6: Bzz1-2, P38822
# T6 sequence (P38822 568-633, looked up): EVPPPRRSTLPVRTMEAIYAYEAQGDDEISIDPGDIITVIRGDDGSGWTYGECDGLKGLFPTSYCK
# T7: Bbc1, P47068
# T7 sequence (P47068 1-78, looked up): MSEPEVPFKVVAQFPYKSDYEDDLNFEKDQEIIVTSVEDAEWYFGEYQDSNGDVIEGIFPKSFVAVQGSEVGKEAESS
# T8: Cyk3, Q07533
# T8 sequence (Q07533 1-83, looked up): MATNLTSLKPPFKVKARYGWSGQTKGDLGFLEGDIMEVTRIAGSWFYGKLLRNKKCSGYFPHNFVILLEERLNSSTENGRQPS
# T9: Hof1, Q05080
# T9 sequence (Q05080 590-669, looked up): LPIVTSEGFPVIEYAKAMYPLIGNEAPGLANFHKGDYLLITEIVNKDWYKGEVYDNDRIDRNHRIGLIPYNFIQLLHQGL
# T10: Bzz1-1, P38822
# T10 sequence (P38822 478-572, looked up): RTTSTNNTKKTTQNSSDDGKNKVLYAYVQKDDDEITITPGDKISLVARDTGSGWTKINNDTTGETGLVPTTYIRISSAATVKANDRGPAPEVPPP
# T11: Sla1-3, P32790
# T11 sequence (P32790 344-424, looked up): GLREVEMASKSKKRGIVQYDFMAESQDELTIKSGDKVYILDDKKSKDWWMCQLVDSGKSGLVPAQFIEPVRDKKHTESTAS
# T12: Abp1, P15891
# T12 sequence (P15891 535-592, looked up): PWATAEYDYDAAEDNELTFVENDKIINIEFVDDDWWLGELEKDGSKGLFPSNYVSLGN
# T13: Boi1, P38041
# T13 sequence (P38041 1-86, looked up): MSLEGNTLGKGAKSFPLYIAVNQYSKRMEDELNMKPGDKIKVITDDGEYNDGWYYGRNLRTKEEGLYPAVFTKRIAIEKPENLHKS
# T14: Fus1, P11710
# T14 sequence (P11710 432-512, looked up): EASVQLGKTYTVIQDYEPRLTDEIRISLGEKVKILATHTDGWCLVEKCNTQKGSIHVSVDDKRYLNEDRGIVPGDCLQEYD
# T15: Cdc25, P04821
# T15 sequence (P04821 50-136, looked up): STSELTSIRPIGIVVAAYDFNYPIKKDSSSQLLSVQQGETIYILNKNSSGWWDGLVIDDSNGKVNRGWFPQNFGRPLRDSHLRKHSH
# T16: Pin3, Q06449
# T16 sequence (Q06449 53-122, looked up): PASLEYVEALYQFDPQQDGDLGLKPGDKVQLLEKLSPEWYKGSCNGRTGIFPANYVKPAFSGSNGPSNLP
# T17: Bud14, P27637
# T17 sequence (P27637 247-328, looked up): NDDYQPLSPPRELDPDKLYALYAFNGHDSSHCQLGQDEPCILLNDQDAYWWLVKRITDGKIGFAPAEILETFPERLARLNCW
# T18: Lsb1, P53281
# T18 sequence (P53281 45-122, looked up): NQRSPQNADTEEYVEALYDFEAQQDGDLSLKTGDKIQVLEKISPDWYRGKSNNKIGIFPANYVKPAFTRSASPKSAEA
# T19: Myo5, Q04439
# T19 sequence (Q04439 1072-1160, looked up): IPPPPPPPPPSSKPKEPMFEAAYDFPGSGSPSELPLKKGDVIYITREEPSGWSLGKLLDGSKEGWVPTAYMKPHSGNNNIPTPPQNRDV
# T20: Sla1-2, P32790
# T20 sequence (P32790 60-140, looked up): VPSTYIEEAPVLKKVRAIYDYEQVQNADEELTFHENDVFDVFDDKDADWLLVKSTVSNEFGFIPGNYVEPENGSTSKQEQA
# T21: Hse1, P38753
# T21 sequence (P38753 208-285, looked up): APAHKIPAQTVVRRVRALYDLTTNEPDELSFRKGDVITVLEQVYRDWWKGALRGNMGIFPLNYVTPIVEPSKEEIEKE
# Molecular target: T1, Lsb4, P32793
# Assay: SPOT array
# Details: median of control spots 397
row,SPOT intensity,Binder
1,0,FVLRYYILIPHEQWD
2,63,FLIKFTPKFPQSIDH
3,207,VGFRLALKFPSRITG
4,27,QFDLKMPSKPIHNLK

# Molecular target: T2, Boi2, P39969
# Assay: SPOT array
# Details: median of control spots 1161
row,SPOT intensity,Binder
1,1,FVLRYYILIPHEQWD
2,0,FLIKFTPKFPQSIDH
3,70,VGFRLALKFPSRITG
4,2,QFDLKMPSKPIHNLK

# Molecular target: T3, Pex13, P80667
# Assay: SPOT array
# Details: median of control spots 1341
row,SPOT intensity,Binder
1,10,FVLRYYILIPHEQWD
2,73,FLIKFTPKFPQSIDH
3,127,VGFRLALKFPSRITG
4,95,QFDLKMPSKPIHNLK

# Molecular target: T4, Lsb3, P43603
# Assay: SPOT array
# Details: median of control spots 406
row,SPOT intensity,Binder
1,0,FVLRYYILIPHEQWD
2,32,FLIKFTPKFPQSIDH
3,166,VGFRLALKFPSRITG
4,9,QFDLKMPSKPIHNLK

# Molecular target: T5, Nbp2, Q12163
# Assay: SPOT array
# Details: median of control spots 357
row,SPOT intensity,Binder
1,47,FVLRYYILIPHEQWD
2,418,FLIKFTPKFPQSIDH
3,1100,VGFRLALKFPSRITG
4,0,QFDLKMPSKPIHNLK

# Molecular target: Rvs167, P39743
# Sequence (P39743 419-482): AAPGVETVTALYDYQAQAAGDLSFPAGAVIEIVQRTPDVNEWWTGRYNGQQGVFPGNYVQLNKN
# Assay: SPOT array
# Details: median of control spots 2707
row,SPOT intensity,Binder
1,0,FVLRYYILIPHEQWD
2,2,FLIKFTPKFPQSIDH
3,6,VGFRLALKFPSRITG
4,6,QFDLKMPSKPIHNLK

# Molecular target: Bem1-1, P29366
# Sequence (P29366 55-141): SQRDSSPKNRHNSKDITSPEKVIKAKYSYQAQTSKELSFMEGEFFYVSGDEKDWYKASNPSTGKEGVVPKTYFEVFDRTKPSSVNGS
# Assay: SPOT array
# Details: median of control spots 4282
row,SPOT intensity,Binder
1,2,FVLRYYILIPHEQWD
2,1,FLIKFTPKFPQSIDH
3,0,VGFRLALKFPSRITG
4,0,QFDLKMPSKPIHNLK

# Molecular target: T6, Bzz1-2, P38822
# Assay: SPOT array
# Details: median of control spots 4538
row,SPOT intensity,Binder
1,2,FVLRYYILIPHEQWD
2,9,FLIKFTPKFPQSIDH
3,109,VGFRLALKFPSRITG
4,0,QFDLKMPSKPIHNLK

# Molecular target: T7, Bbc1, P47068
# Assay: SPOT array
# Details: median of control spots 796
row,SPOT intensity,Binder
1,15,FVLRYYILIPHEQWD
2,44,FLIKFTPKFPQSIDH
3,663,VGFRLALKFPSRITG
4,0,QFDLKMPSKPIHNLK

# Molecular target: T8, Cyk3, Q07533
# Assay: SPOT array
# Details: median of control spots 1451
row,SPOT intensity,Binder
1,0,FVLRYYILIPHEQWD
2,0,FLIKFTPKFPQSIDH
3,25,VGFRLALKFPSRITG
4,0,QFDLKMPSKPIHNLK

# Molecular target: T9, Hof1, Q05080
# Assay: SPOT array
# Details: median of control spots 4086
row,SPOT intensity,Binder
1,5,FVLRYYILIPHEQWD
2,24,FLIKFTPKFPQSIDH
3,25,VGFRLALKFPSRITG
4,0,QFDLKMPSKPIHNLK

# Molecular target: T10, Bzz1-1, P38822
# Assay: SPOT array
# Details: median of control spots 4446
row,SPOT intensity,Binder
1,1,FVLRYYILIPHEQWD
2,0,FLIKFTPKFPQSIDH
3,3,VGFRLALKFPSRITG
4,0,QFDLKMPSKPIHNLK

# Molecular target: T11, Sla1-3, P32790
# Assay: SPOT array
# Details: median of control spots 5475
row,SPOT intensity,Binder
1,3,FVLRYYILIPHEQWD
2,13,FLIKFTPKFPQSIDH
3,124,VGFRLALKFPSRITG
4,0,QFDLKMPSKPIHNLK

# Molecular target: T12, Abp1, P15891
# Assay: SPOT array
# Details: median of control spots 935
row,SPOT intensity,Binder
1,0,FVLRYYILIPHEQWD
2,417,FLIKFTPKFPQSIDH
3,489,VGFRLALKFPSRITG
4,41,QFDLKMPSKPIHNLK

# Molecular target: T13, Boi1, P38041
# Assay: SPOT array
# Details: median of control spots 1162
row,SPOT intensity,Binder
1,6,FVLRYYILIPHEQWD
2,7,FLIKFTPKFPQSIDH
3,152,VGFRLALKFPSRITG
4,0,QFDLKMPSKPIHNLK

# Molecular target: Myo3, P36006
# Assay: SPOT array
# Details: median of control spots 468
row,SPOT intensity,Binder
1,0,FVLRYYILIPHEQWD
2,77,FLIKFTPKFPQSIDH
3,164,VGFRLALKFPSRITG
4,34,QFDLKMPSKPIHNLK

# Molecular target: Sho1, P40073
# Sequence (P40073 287-367): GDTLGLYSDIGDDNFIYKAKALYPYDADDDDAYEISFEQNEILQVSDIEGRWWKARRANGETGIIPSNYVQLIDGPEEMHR
# Assay: SPOT array
# Details: median of control spots 1148
row,SPOT intensity,Binder
1,5,FVLRYYILIPHEQWD
2,304,FLIKFTPKFPQSIDH
3,718,VGFRLALKFPSRITG
4,7,QFDLKMPSKPIHNLK

# Molecular target: GST
# Assay: SPOT array
# Details: median of control spots 978
row,SPOT intensity,Binder
1,0,FVLRYYILIPHEQWD
2,0,FLIKFTPKFPQSIDH
3,0,VGFRLALKFPSRITG
4,0,QFDLKMPSKPIHNLK

# Molecular target: T14, Fus1, P11710
# Assay: SPOT array
# Details: median of control spots 1200
row,SPOT intensity,Binder
1,42,FVLRYYILIPHEQWD
2,100,FLIKFTPKFPQSIDH
3,430,VGFRLALKFPSRITG
4,0,QFDLKMPSKPIHNLK

# Molecular target: T15, Cdc25, P04821
# Assay: SPOT array
# Details: median of control spots 969
row,SPOT intensity,Binder
1,59,FVLRYYILIPHEQWD
2,209,FLIKFTPKFPQSIDH
3,490,VGFRLALKFPSRITG
4,1,QFDLKMPSKPIHNLK

# Molecular target: T16, Pin3, Q06449
# Assay: SPOT array
# Details: median of control spots 2171
row,SPOT intensity,Binder
1,9,FVLRYYILIPHEQWD
2,41,FLIKFTPKFPQSIDH
3,150,VGFRLALKFPSRITG
4,68,QFDLKMPSKPIHNLK

# Molecular target: T17, Bud14, P27637
# Assay: SPOT array
# Details: median of control spots 956
row,SPOT intensity,Binder
1,1,FVLRYYILIPHEQWD
2,5,FLIKFTPKFPQSIDH
3,29,VGFRLALKFPSRITG
4,0,QFDLKMPSKPIHNLK

# Molecular target: T18, Lsb1, P53281
# Assay: SPOT array
# Details: median of control spots 388
row,SPOT intensity,Binder
1,2,FVLRYYILIPHEQWD
2,46,FLIKFTPKFPQSIDH
3,452,VGFRLALKFPSRITG
4,1,QFDLKMPSKPIHNLK

# Molecular target: T19, Myo5, Q04439
# Assay: SPOT array
# Details: median of control spots 471
row,SPOT intensity,Binder
1,0,FVLRYYILIPHEQWD
2,27,FLIKFTPKFPQSIDH
3,69,VGFRLALKFPSRITG
4,29,QFDLKMPSKPIHNLK

# Molecular target: T20, Sla1-2, P32790
# Assay: SPOT array
# Details: median of control spots 712
row,SPOT intensity,Binder
1,3,FVLRYYILIPHEQWD
2,10,FLIKFTPKFPQSIDH
3,52,VGFRLALKFPSRITG
4,2,QFDLKMPSKPIHNLK

# Molecular target: Bem1-2, P29366
# Sequence (P29366 139-227): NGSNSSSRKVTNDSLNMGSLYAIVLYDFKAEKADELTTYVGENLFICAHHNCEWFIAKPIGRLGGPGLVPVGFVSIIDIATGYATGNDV
# Assay: SPOT array
# Details: median of control spots 4347
row,SPOT intensity,Binder
1,13,FVLRYYILIPHEQWD
2,0,FLIKFTPKFPQSIDH
3,0,VGFRLALKFPSRITG
4,0,QFDLKMPSKPIHNLK

# Molecular target: T21, Hse1, P38753
# Assay: SPOT array
# Details: median of control spots 1727
row,SPOT intensity,Binder
1,2,FVLRYYILIPHEQWD
2,25,FLIKFTPKFPQSIDH
3,113,VGFRLALKFPSRITG
4,0,QFDLKMPSKPIHNLK
